Source: US20240317868A1 (Boehringer Ingelheim, published 2024)
Read-outs that look alike come from different tables or passages of the source. Blank lines part the entries; values can stand above or below the binder they belong to.

Legend:
human IL1RAP [1] = molecular target: T1, human IL1RAP (human, UniProt Q9NPH3 21-367, limits assumed, biotinylated in the ELISA screens (site not stated)); experiment: ELISA: Fab constant (4 nM) captured on Fd coat (67 nM), Biot-hu IL1RAP titrated from 6.8 nM (the concentration axis is the antigen), SA-HRP 1:4000
T1 construct: also called huIL1RAP; IL1RAP antigen
T1 sequence (looked up): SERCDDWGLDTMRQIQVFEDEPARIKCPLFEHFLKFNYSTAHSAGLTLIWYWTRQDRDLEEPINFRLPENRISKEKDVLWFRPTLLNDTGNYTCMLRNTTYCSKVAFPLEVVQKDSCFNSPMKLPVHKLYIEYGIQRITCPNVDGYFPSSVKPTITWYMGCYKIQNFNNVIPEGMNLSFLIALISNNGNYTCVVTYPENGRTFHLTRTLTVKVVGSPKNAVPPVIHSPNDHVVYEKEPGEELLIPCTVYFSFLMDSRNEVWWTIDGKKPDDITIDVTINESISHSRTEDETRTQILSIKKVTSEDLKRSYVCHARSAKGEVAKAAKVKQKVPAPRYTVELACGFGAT

human IL1RAP [2] = molecular target: T1, human IL1RAP; experiment: as above; remark: listed apart in the source
human IL1RAP [3] = molecular target: T1, human IL1RAP; experiment: hKD, method not stated
human IL1RAP [4] = molecular target: T1, human IL1RAP; experiment: ELISA, antigen titration: Fab (1:5) captured on anti-Fd coat 700 ng/ml (4.7 nM), IL1RAP antigen titrated (the concentration axis is the antigen), SA-HRP 1:4000

- EC50 (read off the curve) (human IL1RAP [1]): ~400 pM
- EC50 (read off the curve) (human IL1RAP [2]): ~400 pM
B1: IL1RAP G011 chimeric Fab (Fab, V domains shown)
VH: QVHLQQSGPELVRPGTSVKISCEASGYIFLTYWMNWVKQRPGQGLEWIGQIFPASDSTYYNEMFKDKARFTVDKSSSTAYMQFSSLTSEDTAVYFCARSGPYSYYAGGYALDYWGQGTSVTVSS
VL: DIQMTQSPASLSASVGETVTITCRTSENINSYLAWYQQKQGKSPQLLVHYAKTLAEGVPSRFSGSGSGTQFSLKINSLKPEDFGSYYCQHHYGTSLTFGAGTKLELK
notes: Mouse VK and VH fused to human Ck and CH1; expressed in E. coli (periplasmic extract or supernatant); also called mouse Fab; chimeric parent anti-IL1RAP GO11 Fab

- Kd (human IL1RAP [3]): 200 pM
B2: CAN04 (antibody, V domains shown)
VH: QVQLQQSGPELLKPGASVKISCKASGYAFSSSWMNWVKQRPGKGLEWIGRIYPGDGNTHYSGKFKGKATLTADKSSSIAYMQLSSLTSEDSAVYFCGEGYLDPMDYWGQGTSVTVSS
VL: DIQMTQTTSSLSASLGDRVTISCSASQGINNYLNWYQQKPDGTVKLLIHYTSGLHAGVPSRFSGSGSGTDYSLTISNLEPEDVATYYCQQYSILPWTFGGGTKLEIKR

- binding result (human IL1RAP [4]): binds
B3: engrafted Fab (GO11 CDRs on IGKV1-39*01 and IGHV1-69*02) (Fab, V domains shown)
VH: QVQLVQSGAEVKKPGSSVKVSCKASGYIFLTYWMNWVRQAPGQGLEWMGQIFPASDSTYYNEMFKDRVTITADKSTSTAYMELSSLRSEDTAVYYCARSGPYSYYAGGYALDYWGQGTLVTVSS
VL: DIQMTQSPSSLSASVGDRVTITCRTSENINSYLAWYQQKPGKAPKLLIYYAKTLAEGVPSRFSGSGSGTDFTLTISSLQPEDFATYYCQHHYGTSLTFGQGTKLEIK
notes: Fab from E. coli periplasmic extract; constant parts not specified; also called HUMANIZED/GRAFT 005-G011 #A1
